Series [1] concerns the molecule itself. Description: SDS-PAGE, non-heated (self-association).
Series [2] concerns the molecule itself. In words: SDS-PAGE (self-association).

These results are taken from patent publication US20180328929A1 (BIOMERIEUX, published 2018).

Residue numbers refer to the chain shown, from its start.

B1: ORF2-MUT (ORF2 amino acids 394-660 with cysteines 627, 630 and 638 changed to serine, N-terminal 8-his tag) (other)
chain: HHHHHHHHQLFYSRPVVSANGEPTVKLYTSVENAQQDKGIAIPHDIDLGESRVVIQDYDNQHEQDRPTPSPAPSRPFSVLRANDVLWLSLTAAEYDQSTYGSSTGPVYVSDSVTLVNVATGAQAVARSLDWTKVTLDGRPLSTTQQYSKTFFVLPLRGKLSFWEAGTTKAGYPYNYNTTASDQLLVENAAGHRVAISTYTTSLGAGPVSISAVAVLAPHSALALLEDTMDYPARAHTFDDFSPESRPLGLQGSAFQSTVAELQRLKMKVGKTREL
notes: Made in E. coli; also called p-ORF2-MUT; construction according to the invention
As to B1, the binding result in series [1] is recorded as “binds”.

B2: ORF2-REF (ORF2 amino acids 394-660 of hepatitis E virus isolate Human/China/HeBei/1987, N-terminal 8-his tag) (other)
chain: B1 chain with S242C, S245C, S253C
notes: Made in E. coli, dissolved from inclusion bodies in urea, Ni-NTA purified, dialyzed; Heterogeneous: covalent dimers (major form), non-covalent dimers, high-molecular-weight forms and aggregates; also called p-ORF2.1 polypeptide
For B2, the binding result in series [2] is recorded as “binds”.
